This passage reports β-galactosidase activity compared to the wild-type construct results from paper PMC2582609.

In assay [1] the target is NIPBL R1856G (CdLS missense mutation) GAL4-DNA-binding domain fusion (human) (UniProt Q6KC79). Description: two-hybrid.
In assay [2] the target is NIPBL R1895T (CdLS missense mutation) GAL4-DNA-binding domain fusion (human) (UniProt Q6KC79). Description: two-hybrid.

“full-length HDAC3 fused to the GAL4-activating domain (from UniProt O15379 1-428) (enzyme)”: the β-galactosidase activity compared to the wild-type construct in assay [1] and in assay [2] was 50% throughout.
